According to US10428140B2, “Anti-EphA4 antibody” (EISAI R&D MANAGEMENT CO., LTD., priority 2015, dated 2019):
Residue numbers refer to the chain shown, from its start.

T1: human EphB4 (Homo sapiens, UniProt P54760)
T1 construct: a protein of the extracellular region of each human Eph receptor fused with the SEAP protein and the His tag; made in house; host or cells: Expi293F cells
T1 sequence (P54760 16-539 limits assumed): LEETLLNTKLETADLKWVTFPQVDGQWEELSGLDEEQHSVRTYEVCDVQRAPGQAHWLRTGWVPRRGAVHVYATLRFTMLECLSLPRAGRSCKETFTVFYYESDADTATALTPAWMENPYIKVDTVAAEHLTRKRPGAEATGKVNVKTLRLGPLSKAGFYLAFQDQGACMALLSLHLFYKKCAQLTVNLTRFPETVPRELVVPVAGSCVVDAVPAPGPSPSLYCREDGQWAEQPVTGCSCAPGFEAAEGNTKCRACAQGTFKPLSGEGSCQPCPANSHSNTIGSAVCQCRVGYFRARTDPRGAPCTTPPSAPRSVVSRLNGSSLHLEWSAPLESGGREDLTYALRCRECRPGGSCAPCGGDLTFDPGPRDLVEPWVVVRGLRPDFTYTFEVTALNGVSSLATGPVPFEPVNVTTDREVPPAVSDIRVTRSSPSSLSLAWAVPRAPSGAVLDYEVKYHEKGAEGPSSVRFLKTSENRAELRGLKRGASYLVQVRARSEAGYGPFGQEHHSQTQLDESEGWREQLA

T2: human EphB2 (Homo sapiens, UniProt P29323)
T2 construct: a protein of the extracellular region of each human Eph receptor fused with the SEAP protein and the His tag; made in house; host or cells: Expi293F cells
T2 sequence (P29323 19-543 limits assumed): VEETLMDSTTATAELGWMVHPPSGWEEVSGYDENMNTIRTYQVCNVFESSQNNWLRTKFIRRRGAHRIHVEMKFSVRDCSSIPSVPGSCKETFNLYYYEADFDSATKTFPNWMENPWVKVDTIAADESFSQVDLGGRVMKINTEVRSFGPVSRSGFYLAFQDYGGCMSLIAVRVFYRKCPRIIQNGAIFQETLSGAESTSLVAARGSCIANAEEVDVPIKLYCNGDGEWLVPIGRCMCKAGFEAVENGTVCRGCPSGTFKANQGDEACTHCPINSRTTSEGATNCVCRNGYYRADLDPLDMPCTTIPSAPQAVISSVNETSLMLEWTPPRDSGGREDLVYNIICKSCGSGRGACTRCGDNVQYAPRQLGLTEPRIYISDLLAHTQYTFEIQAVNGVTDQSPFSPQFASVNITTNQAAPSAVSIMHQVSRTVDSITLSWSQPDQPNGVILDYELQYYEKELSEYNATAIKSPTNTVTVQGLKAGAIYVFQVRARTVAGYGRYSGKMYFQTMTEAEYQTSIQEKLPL

B1: 151 (antibody, V domains shown)
VH: QIQLVQSGSELKKPGASVKVSCKASGYTFTDYSMHWVRQAPGQGLKWMGWINTETGEPTYAQGFTGRFVFSLDTSVSTAYLQISSLKAEDTAVYYCARIPLYYYGSRYWYFDVWGQGTTVTVSS
VL: DIQMTQSPSSLSASVGDRVTITCRASENIYRNLAWYQQKPGKAPKLLLYAATNLADGVPSRFSGSGSGTDYTLTISSLQSEDFATYYCQHFWGTPWTFGQGTKVEIK
modifications: synthetic humanized antibody heavy chain variable region sequence; synthetic humanized antibody light chain variable region sequence
B2: 154 (antibody, V domains shown)
VH: B1 VH with I2V, K46E, Q62D, G63D, T65K
VL: B1 VL
modifications: synthetic humanized antibody heavy chain variable region sequence; synthetic humanized antibody light chain variable region sequence
B3: 134 (antibody, V domains shown)
VH: B1 VH with I2V
VL: EIVMTQSPATLSVSPGERATLSCRASENIYRNLAWYQQKPGQSPRLLIYAATNLADGIPARFSGSGSGTEYTLTISSLQSEDFAVYYCQHFWGTPWTFGQGTKVEIK
modifications: synthetic humanized antibody heavy chain variable region sequence; synthetic humanized antibody light chain variable region sequence
B4: 145 (antibody, V domains shown)
VH: B1 VH with I2V, Q62D, G63D, T65K
VL: B1 VL
modifications: synthetic humanized antibody heavy chain variable region sequence; synthetic humanized antibody light chain variable region sequence
B5: 159 (antibody, V domains shown)
VH: B1 VH with I2V, Q62D, G63D, T65K
VL: B1 VL with K45Q, S80P
modifications: synthetic humanized antibody heavy chain variable region sequence; synthetic humanized antibody light chain variable region sequence
B6: 144 (antibody, V domains shown)
VH: B1 VH with I2V, K46E, Q62D, G63D, T65K
VL: B1 VL with K45Q, S80P
modifications: synthetic humanized antibody heavy chain variable region sequence; synthetic humanized antibody light chain variable region sequence
B7: 133 (antibody, V domains shown)
VH: B1 VH with I2V, K46E
VL: B3 VL
modifications: synthetic humanized antibody heavy chain variable region sequence; synthetic humanized antibody light chain variable region sequence
B8: 132 (antibody, V domains shown)
VH: B1 VH
VL: B3 VL
modifications: synthetic humanized antibody heavy chain variable region sequence; synthetic humanized antibody light chain variable region sequence
B9: 155 (antibody, V domains shown)
VH: B1 VH with Q62D, G63D, T65K
VL: B1 VL
modifications: synthetic humanized antibody heavy chain variable region sequence; synthetic humanized antibody light chain variable region sequence
B10: 160 (antibody, V domains shown)
VH: B1 VH with Q62D, G63D, T65K
VL: B1 VL with K45Q, S80P
modifications: synthetic humanized antibody heavy chain variable region sequence; synthetic humanized antibody light chain variable region sequence
B11: 157 (antibody, V domains shown)
VH: B1 VH with I2V, K46E
VL: B1 VL with K45Q, S80P
modifications: synthetic humanized antibody heavy chain variable region sequence; synthetic humanized antibody light chain variable region sequence
B12: 158 (antibody, V domains shown)
VH: B1 VH with I2V
VL: B1 VL with K45Q, S80P
modifications: synthetic humanized antibody heavy chain variable region sequence; synthetic humanized antibody light chain variable region sequence

Each molecule was assayed against T1, human EphB4 (assay: Selectivity ELISA of humanized antibodies for human Eph receptor). Details: coated protein 1 nM.
Format: binding
Outline: (§1)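 Steps: coat anti-His antibody; block, then 1% BlockAce overnight at 4 °C; add Eph receptor extracellular region-SEAP-His (1 nM final) 1 h; add humanized antibody 1 h; add HRP anti-IgG 1 h; develop TMB; stop with acid; read 450 nm.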

hEphB4-SEAP-: absorbance at 450 nm, percentage with respect to hEphA4-SEAP-His as 100% [%] | Molecule
7.4 | B1
6.4 | B2
5.1 | B3
6.7 | B4
5.4 | B5
5.7 | B6
4.9 | B7
4.8 | B8
5.7 | B9
6.3 | B10
6.5 | B11
6.5 | B12

Each molecule was assayed against T2, human EphB2 in the same assay as above. Details: coated protein 1 nM.
Format: binding
Outline: as §1

hEphB2-SEAP-: absorbance at 450 nm, percentage with respect to hEphA4-SEAP-His as 100% [%] | Molecule
7.0 | B1
6.2 | B2
5.1 | B3
6.7 | B4
5.4 | B5
5.7 | B6
4.6 | B7
4.7 | B8
5.5 | B9
6.2 | B10
6.2 | B11
6.3 | B12

Each molecule was assayed against T3, human EphA4 (Homo sapiens, UniProt P54764) in the same assay as above. Details: coated protein 1 nM; reference set to 100%.
T3 construct: made in house; not restated for the human SEAP-His protein
Format: binding
Outline: as §1

T3 sequence (P54764 20-547): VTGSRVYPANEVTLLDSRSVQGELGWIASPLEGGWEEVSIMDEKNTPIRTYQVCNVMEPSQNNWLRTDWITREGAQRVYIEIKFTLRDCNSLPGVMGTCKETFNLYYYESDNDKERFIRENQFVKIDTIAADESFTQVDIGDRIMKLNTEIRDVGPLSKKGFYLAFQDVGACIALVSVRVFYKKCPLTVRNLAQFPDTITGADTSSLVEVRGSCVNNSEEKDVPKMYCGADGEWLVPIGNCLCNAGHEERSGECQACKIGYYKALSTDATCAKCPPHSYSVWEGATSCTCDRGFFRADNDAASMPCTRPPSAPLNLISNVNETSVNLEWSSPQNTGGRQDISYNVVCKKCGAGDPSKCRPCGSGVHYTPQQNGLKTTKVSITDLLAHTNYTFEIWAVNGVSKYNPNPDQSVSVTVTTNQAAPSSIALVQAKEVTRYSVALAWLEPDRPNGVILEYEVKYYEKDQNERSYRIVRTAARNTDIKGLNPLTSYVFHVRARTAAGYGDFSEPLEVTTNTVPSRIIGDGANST

hEphA4-SEAP-: absorbance at 450 nm, percentage with respect to hEphA4-SEAP-His as 100% [%] | Molecule
100 | B1
100 | B2
100 | B3
100 | B4
100 | B5
100 | B6
100 | B7
100 | B8
100 | B9
100 | B10
100 | B11
100 | B12

These molecules were tested against T4, human EphA2 (Homo sapiens, UniProt P29317) in the same assay as above. Details: coated protein 1 nM.
T4 construct: a protein of the extracellular region of each human Eph receptor fused with the SEAP protein and the His tag; made in house; host or cells: Expi293F cells (culture supernatant)
Format: binding
Outline: as §1

T4 sequence (P29317 24-537 limits assumed): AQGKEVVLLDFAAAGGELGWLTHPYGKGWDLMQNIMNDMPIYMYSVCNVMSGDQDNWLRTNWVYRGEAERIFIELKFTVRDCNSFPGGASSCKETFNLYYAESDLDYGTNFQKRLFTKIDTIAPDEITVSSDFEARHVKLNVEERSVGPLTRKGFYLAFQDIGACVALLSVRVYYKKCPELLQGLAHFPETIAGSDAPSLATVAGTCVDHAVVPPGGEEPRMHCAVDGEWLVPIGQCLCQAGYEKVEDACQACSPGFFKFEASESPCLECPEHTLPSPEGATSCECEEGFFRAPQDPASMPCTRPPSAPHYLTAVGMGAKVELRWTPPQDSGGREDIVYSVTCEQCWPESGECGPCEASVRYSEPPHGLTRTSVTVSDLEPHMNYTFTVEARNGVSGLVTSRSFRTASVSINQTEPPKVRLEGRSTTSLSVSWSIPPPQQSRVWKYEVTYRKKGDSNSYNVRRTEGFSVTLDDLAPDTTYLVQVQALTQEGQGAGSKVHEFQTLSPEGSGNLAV

hEphA2-SEAP-: absorbance at 450 nm, percentage with respect to hEphA4-SEAP-His as 100% [%] | Molecule
6.9 | B1
6.2 | B2
5.0 | B3
6.5 | B4
5.4 | B5
5.6 | B6
4.7 | B7
4.8 | B8
5.5 | B9
6.1 | B10
6.3 | B11
6.7 | B12
